Measured values reported in US20240189423A1 (University of California, published 2024).

Columns and labels:
VEGF-647 = VEGF-647 (UniProt P15692-4 27-191, biotinylated, pre-incubated with streptavidin-647); assay: cell-based or functional assay
CXCR4 = biological target: T1, CXCR4 (human (endogenous on a human cancer …, UniProt P61073 1-352)); assay: flow cytometry on MDA-MB-231 cells known to express CXCR4 and CXCR7
T1 construct: whole, on cells

CXCR7 = biological target: T2, CXCR7 (human (endogenous on a human cancer …, UniProt P25106 1-362)); assay: as above
T2 construct: whole, on cells; also called ACKR3

mouse CXCR7 = biological target: T3, mouse CXCR7 (mouse, UniProt P56485 1-362); assay: flow cytometry on MC38 and CT26 mouse cells
T3 construct: whole, on cells; also called mouse CXCR7 receptors
T3 sequence (P56485 whole entry): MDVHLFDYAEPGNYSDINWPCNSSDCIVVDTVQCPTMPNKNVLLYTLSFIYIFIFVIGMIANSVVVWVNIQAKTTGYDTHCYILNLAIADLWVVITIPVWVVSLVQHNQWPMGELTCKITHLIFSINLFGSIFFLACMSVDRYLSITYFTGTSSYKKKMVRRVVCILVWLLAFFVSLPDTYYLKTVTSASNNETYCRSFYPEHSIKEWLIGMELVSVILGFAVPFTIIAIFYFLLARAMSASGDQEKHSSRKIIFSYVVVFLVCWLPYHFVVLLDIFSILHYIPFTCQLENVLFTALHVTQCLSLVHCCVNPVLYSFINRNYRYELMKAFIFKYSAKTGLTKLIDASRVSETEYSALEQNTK

T1 sequence (P61073 whole entry): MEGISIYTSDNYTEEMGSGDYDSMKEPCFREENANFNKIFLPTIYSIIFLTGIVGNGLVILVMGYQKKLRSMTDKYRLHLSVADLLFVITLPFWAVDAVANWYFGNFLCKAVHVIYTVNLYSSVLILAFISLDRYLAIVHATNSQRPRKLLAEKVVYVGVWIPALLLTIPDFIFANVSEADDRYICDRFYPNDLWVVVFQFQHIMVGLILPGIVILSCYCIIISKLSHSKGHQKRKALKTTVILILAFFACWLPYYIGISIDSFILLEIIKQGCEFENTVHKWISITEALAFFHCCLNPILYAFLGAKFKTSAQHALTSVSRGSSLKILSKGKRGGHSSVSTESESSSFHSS
Sequence of VEGF-647 (P15692 other isoform, or with tags, fused parts or gaps limits assumed): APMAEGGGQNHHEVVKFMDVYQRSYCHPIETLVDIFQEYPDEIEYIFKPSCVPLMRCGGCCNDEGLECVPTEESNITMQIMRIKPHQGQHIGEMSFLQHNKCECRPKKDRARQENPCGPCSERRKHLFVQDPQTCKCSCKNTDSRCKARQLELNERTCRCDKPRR
T2 sequence (P25106 whole entry): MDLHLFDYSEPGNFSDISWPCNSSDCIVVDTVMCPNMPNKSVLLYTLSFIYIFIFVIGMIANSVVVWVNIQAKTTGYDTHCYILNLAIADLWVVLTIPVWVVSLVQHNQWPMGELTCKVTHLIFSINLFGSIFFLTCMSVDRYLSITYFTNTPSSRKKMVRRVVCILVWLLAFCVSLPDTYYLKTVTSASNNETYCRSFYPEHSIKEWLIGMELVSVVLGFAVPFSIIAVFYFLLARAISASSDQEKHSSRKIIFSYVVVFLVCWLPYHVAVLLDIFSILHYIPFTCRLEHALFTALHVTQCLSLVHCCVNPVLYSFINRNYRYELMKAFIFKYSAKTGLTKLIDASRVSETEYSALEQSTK

B1: CXCL12-Bevacizumab (bispecific antibody, human IgG1, N297G)
chain: not shown
heavy: not shown
light: not shown
B1 was tested, and the “fold increase in cellular fluorescence (VEGF-647 uptake), flow cytometry, HeLa cells, 24 hr” value (VEGF-647) was 32 fold.

B2: CXCL12-Isotype (bispecific antibody, human IgG1, kappa, N297G)
chain: not shown
heavy: not shown
light: DIQMTQSPSSLSASVGDRVTITCRASQSVGSALAWYQQKPGKAPKLLIYSASSLYSGVPSRFSGSRSGTDFTLTISSLQPEDFATYYCQQSSYHHPITFGQGTKVEIKRTVAAPSVFIFPPSDSQLKSGTASVVCLLNNFYPREAKVQWKVDNALQSGNSQESVTEQDSKDSTYSLSSTLTLSKADYEKHKVYACEVTHQGLSSPVTKSF
notes: also called human CXCL12 isotype; isotype control of the CXCL12 bispecific
B2: binds (CXCR4); binds (CXCR7); binds (mouse CXCR7).
